Results: patent US20230203142

Biological target: human NDPK-A (nucleoside diphosphate kinase A), full-length recombinant
Sequence (chain, as listed by the source): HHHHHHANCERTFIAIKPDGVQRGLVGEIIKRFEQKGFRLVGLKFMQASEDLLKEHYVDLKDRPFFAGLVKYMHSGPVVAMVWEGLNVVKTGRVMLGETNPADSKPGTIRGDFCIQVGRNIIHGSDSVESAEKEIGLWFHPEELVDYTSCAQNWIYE

B1: human ADK (adenosine kinase), recombinant (protein)
chain: AAAEEEPKPKKLKVEAPQALRENILFGMGNPLLDISAVVDKDFLDKYSLKPNDQILAEDKHKELFDELVKKFKVEYHAGGSTQNSIKVAQWMIQQPHKAATFFGCIGIDKFGEILKRKAAEAHVDAHYYEQNEQPTGTCAACITGDNRSLIANLAAANCYKKEKHLDLEKNWMLVEKARVCYIAGFFLTVSPESVLKVAHHASENNRIFTLNLSAPFISQFYKESLMKVMPYVDILFGNETEAATFAREQGFETKDIKEIAKKTQALPKMNSKRQRIVIFTQGRDDTIMATESEVTAFAVLDQDQKEIIDTNGAGDAFVGGFLSQLVSDKPLTECIRAGHYAASIIIRRTGCTFPEKPDFH
B1 was tested, and the “activity of recombinant NDPK to generate ADP (ADP-Glo)” value was “addition of recombinant ADK significantly reduced the activity of NDPK to generate ADP”.
